Key:
MHF1;MHF2 [1] = target: T1, MHF1;MHF2 (human;human, UniProt Q8N2Z9;A8MT69 1-138;1-81, |); experiment: fluorescence polarization
[2] = target: MHF1 K73A/R74A;MHF2;FANCM-F K675A/K676A (human;human;human, UniProt Q8N2Z9;A8MT69;Q8IYD8 1-138;1-81;661-800, K73A;R74A||K675A;K676A); experiment: EMSA
[3] = target: MHF1 K73A/R74A;MHF2;FANCM-F (human;human;human, UniProt Q8N2Z9;A8MT69;Q8IYD8 1-138;1-81;661-800, K73A;R74A||); experiment: EMSA
MHF1;MHF2 [4] = target: T1, MHF1;MHF2; experiment: EMSA
[5] = target: MHF1 R12A/R18A/K73A/R74A;MHF2;FANCM-F K686A/R690A/R693A (human;human;human, UniProt Q8N2Z9;A8MT69;Q8IYD8 1-138;1-81;661-800, R12A;R18A;K73A;R74A||K686A;R690A;R693A); experiment: EMSA
[6] = target: MHF1 K73A/R74A;MHF2 R11A/K12A;FANCM-F K675A/K676A (human;human;human, UniProt Q8N2Z9;A8MT69;Q8IYD8 1-138;1-81;661-800, K73A;R74A|R11A;K12A|K675A;K676A); experiment: EMSA
[7] = target: MHF1;MHF2 K27A/K29A;FANCM-F (human;human;human, UniProt Q8N2Z9;A8MT69;Q8IYD8 1-138;1-81;661-800, |K27A;K29A|); experiment: EMSA
MHF1 1-107;MHF2;FANCM-F = MHF1 1-107;MHF2;FANCM-F (human;human;human, UniProt Q8N2Z9;A8MT69;Q8IYD8 1-107;1-81;661-800, ||); experiment: not stated
crystal structure = target: the molecule itself; experiment: crystal structure

T1 sequence (A8MT69 whole entry, one chain of several): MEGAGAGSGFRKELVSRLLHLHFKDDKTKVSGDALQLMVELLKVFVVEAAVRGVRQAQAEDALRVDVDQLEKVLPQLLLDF
MHF1 K73A/R74A;MHF2 R11A/K12A;FANCM-F K675A/K676A, sequence (A8MT69 whole entry R11A/K12A, chain 2 of 2): as the sequence (A8MT69 whole entry, one chain of several) above, with R11A, K12A counted along it
MHF1 K73A/R74A;MHF2 R11A/K12A;FANCM-F K675A/K676A, sequence (Q8IYD8 661-800 K675A/K676A, chain 3 of 2): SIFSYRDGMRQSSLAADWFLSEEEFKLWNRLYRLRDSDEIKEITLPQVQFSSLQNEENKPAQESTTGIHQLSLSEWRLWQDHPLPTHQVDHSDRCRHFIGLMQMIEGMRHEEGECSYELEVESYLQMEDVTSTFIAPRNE
MHF1 K73A/R74A;MHF2;FANCM-F, sequence (A8MT69 whole entry, chain 2 of 2): as the sequence (A8MT69 whole entry, one chain of several) above
MHF1 K73A/R74A;MHF2;FANCM-F, sequence (Q8IYD8 661-800, chain 3 of 2): as the sequence (Q8IYD8 661-800 K675A/K676A, chain 3 of 2) above, with A15K, A16K counted along it
MHF1 1-107;MHF2;FANCM-F, sequence (A8MT69 whole entry, chain 2 of 2): as the sequence (A8MT69 whole entry, one chain of several) above
MHF1 1-107;MHF2;FANCM-F, sequence (Q8IYD8 661-800, chain 3 of 2): as the sequence (Q8IYD8 661-800 K675A/K676A, chain 3 of 2) above, with A15K, A16K counted along it
MHF1 K73A/R74A;MHF2;FANCM-F K675A/K676A, sequence (A8MT69 whole entry, chain 2 of 2): as the sequence (A8MT69 whole entry, one chain of several) above
MHF1 K73A/R74A;MHF2;FANCM-F K675A/K676A, sequence (Q8IYD8 661-800 K675A/K676A, chain 3 of 2): as the sequence (Q8IYD8 661-800 K675A/K676A, chain 3 of 2) above
MHF1 R12A/R18A/K73A/R74A;MHF2;FANCM-F K686A/R690A/R693A, sequence (Q8N2Z9 whole entry R12A/R18A/K73A/R74A, chain 1 of 3): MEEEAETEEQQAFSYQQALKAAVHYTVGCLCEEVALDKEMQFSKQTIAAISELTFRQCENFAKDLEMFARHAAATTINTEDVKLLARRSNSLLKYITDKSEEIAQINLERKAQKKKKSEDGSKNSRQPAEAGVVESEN
MHF1 R12A/R18A/K73A/R74A;MHF2;FANCM-F K686A/R690A/R693A, sequence (A8MT69 whole entry, chain 2 of 3): as the sequence (A8MT69 whole entry, one chain of several) above
MHF1 R12A/R18A/K73A/R74A;MHF2;FANCM-F K686A/R690A/R693A, sequence (Q8IYD8 661-800 K686A/R690A/R693A, chain 3 of 3): as the sequence (Q8IYD8 661-800 K675A/K676A, chain 3 of 2) above, with A15K, A16K, K26A, R30A, R33A counted along it
MHF1;MHF2 K27A/K29A;FANCM-F, sequence (A8MT69 whole entry K27A/K29A, chain 2 of 2): as the sequence (A8MT69 whole entry, one chain of several) above, with K27A, K29A counted along it
MHF1;MHF2 K27A/K29A;FANCM-F, sequence (Q8IYD8 661-800, chain 3 of 2): as the sequence (Q8IYD8 661-800 K675A/K676A, chain 3 of 2) above, with A15K, A16K counted along it

B1: 59 bp dsDNA (FPA) (dsDNA)
DNA 1: ACGCTGCCGAATTCTACCAGTGCCTTGCTAGGACATCTTTGCCCACCTGCAGGTTCACC
DNA 2: GGTGAACCTGCAGGTGGGCAAAGATGTCCTAGCAAGGCACTGGTAGAATTCGGCAGCGT
- binding result (MHF1;MHF2 [1]): binds

B2: 59 bp dsDNA (EMSA) (dsDNA)
DNA 1: B1 DNA 1
DNA 2: B1 DNA 2
- binding result [2]: no binding
- binding result [3]: binds
- binding result (MHF1;MHF2 [4]): binds
- binding result [5]: no binding
- binding result [6]: no binding
- binding result [7]: binds
- binding result (MHF1 1-107;MHF2;FANCM-F): no binding

B3: MHF1^1-107 (truncated MHF1 with the C-terminal 31 residues deleted) (domain or fragment, human, UniProt Q8N2Z9 1-107, looked up)
chain: MEEEAETEEQQRFSYQQRLKAAVHYTVGCLCEEVALDKEMQFSKQTIAAISELTFRQCENFAKDLEMFARHAKRTTINTEDVKLLARRSNSLLKYITDKSEEIAQIN
- binding result (crystal structure): binds

— paper PMC3646547 (Nature communications, 2012)
